B1: CEA-M3-NA (bispecific antibody, human IgG1, kappa, N297A)
fusion heavy: QVQLVQSGSELKKPGASVKVSCKASGYTFTVFGMNWVRQAPGQGLEWMGWINTKTGEATYVEEFKGRFVFSLDTSVSTAYLQISSLKADDTAVYYCARWDFYDYVEAMDYWGQGTTVTVSSASTKGPSVFPLAPSSKSTSGGTAALGCLVKDYFPEPVTVSWNSGALTSGVHTFPAVLQSSGLYSLSSVVTVPSSSLGTQTYICNVNHKPSNTKVDKKVEPKSCGGGGSGGGGSQVQLVESGGGVVQPGRSLRLSCAASGFTFSTYAMNWVRQAPGKGLEWVARIRSKYNNYATYYADSVKDRFTISRDDSKNTLYLQMNSLRAEDTAVYYCARHGNFGNSYVSWFAYWGQGTLVTVSSASVAAPSVFIFPPSDEQLKSGTASVVCLLNNFYPREAKVQWKVDNALQSGNSQESVTEQDSKDSTYSLSSTLTLSKADYEKHKVYACEVTHQGLSSPVTKSFNRGECDKTHTCPPCPAPELLGGPSVFLFPPKPKDTLMISRTPEVTCVVVDVSHEDPEVKFNWYVDGVEVHNAKTKPREEQYASTYRVVSVLTVLHQDWLNGKEYKCKVSNKALPAPIEKTISKAKGQPREPQVYTLPPCRDELTKNQVSLWCLVKGFYPSDIAVEWESNGQPENNYKTTPPVLDSDGSFFLYSKLTVDKSRWQQGNVFSCSVMHEALHNHYTQKSLSLSPGK
cross light: QTVVTQEPSLTVSPGGTVTLTCRSSTGAVTTSNYANWVQQKPGQAPRGLIGGTNKRAPGVPARFSGSLLGGKAALTLSGVQPEDEAEYYCALWYSNLWVFGGGTKVEIKSSASTKGPSVFPLAPSSKSTSGGTAALGCLVKDYFPEPVTVSWNSGALTSGVHTFPAVLQSSGLYSLSSVVTVPSSSLGTQTYICNVNHKPSNTKVDKKVEPKSC
heavy: QVQLVQSGSELKKPGASVKVSCKASGYTFTVFGMNWVRQAPGQGLEWMGWINTKTGEATYVEEFKGRFVFSLDTSVSTAYLQISSLKADDTAVYYCARWDFYDYVEAMDYWGQGTTVTVSSASTKGPSVFPLAPSSKSTSGGTAALGCLVKDYFPEPVTVSWNSGALTSGVHTFPAVLQSSGLYSLSSVVTVPSSSLGTQTYICNVNHKPSNTKVDKKVEPKSCDKTHTCPPCPAPELLGGPSVFLFPPKPKDTLMISRTPEVTCVVVDVSHEDPEVKFNWYVDGVEVHNAKTKPREEQYASTYRVVSVLTVLHQDWLNGKEYKCKVSNKALPAPIEKTISKAKGQPREPQVCTLPPSRDELTKNQVSLSCAVKGFYPSDIAVEWESNGQPENNYKTTPPVLDSDGSFFLVSKLTVDKSRWQQGNVFSCSVMHEALHNRFTQKSLSLSPGK
light: DIQMTQSPSSLSASVGDRVTITCKASQNVGTNVAWYQQKPGKAPKLLIYSASYRYSGVPSRFSGSGSGTDFTFTISSLQPEDIATYYCHQYYTYPLFTFGQGTKVEIKRTVAAPSVFIFPPSDEQLKSGTASVVCLLNNFYPREAKVQWKVDNALQSGNSQESVTEQDSKDSTYSLSSTLTLSKADYEKHKVYACEVTHQGLSSPVTKSFNRGEC
notes: structure 3; CEA x CD3; CH2 N297A; copies: 1 + 1 + 1 + 2
B2: M3IC-WT (bispecific antibody)
fusion heavy: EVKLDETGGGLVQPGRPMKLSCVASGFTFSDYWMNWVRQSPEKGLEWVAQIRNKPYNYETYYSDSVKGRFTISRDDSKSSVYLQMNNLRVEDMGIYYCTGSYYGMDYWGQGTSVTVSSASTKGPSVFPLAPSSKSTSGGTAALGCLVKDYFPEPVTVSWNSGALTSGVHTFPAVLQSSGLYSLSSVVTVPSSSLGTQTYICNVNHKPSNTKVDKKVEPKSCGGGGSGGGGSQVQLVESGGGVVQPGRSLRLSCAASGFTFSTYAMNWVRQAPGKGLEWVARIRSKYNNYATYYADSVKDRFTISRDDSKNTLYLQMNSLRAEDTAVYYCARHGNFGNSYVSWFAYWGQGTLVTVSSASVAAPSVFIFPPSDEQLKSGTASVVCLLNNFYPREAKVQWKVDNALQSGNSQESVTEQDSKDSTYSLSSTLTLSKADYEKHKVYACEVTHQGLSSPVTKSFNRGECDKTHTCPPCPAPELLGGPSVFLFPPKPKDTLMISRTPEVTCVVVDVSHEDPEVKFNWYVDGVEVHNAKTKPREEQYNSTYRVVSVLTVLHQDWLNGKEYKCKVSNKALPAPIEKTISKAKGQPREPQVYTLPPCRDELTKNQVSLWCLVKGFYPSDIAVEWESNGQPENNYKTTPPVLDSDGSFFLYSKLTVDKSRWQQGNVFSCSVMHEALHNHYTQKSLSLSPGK
cross light: QTVVTQEPSLTVSPGGTVTLTCRSSTGAVTTSNYANWVQQKPGQAPRGLIGGTNKRAPGVPARFSGSLLGGKAALTLSGVQPEDEAEYYCALWYSNLWVFGGGTKVEIKSSASTKGPSVFPLAPSSKSTSGGTAALGCLVKDYFPEPVTVSWNSGALTSGVHTFPAVLQSSGLYSLSSVVTVPSSSLGTQTYICNVNHKPSNTKVDKKVEPKSC
heavy: EVKLDETGGGLVQPGRPMKLSCVASGFTFSDYWMNWVRQSPEKGLEWVAQIRNKPYNYETYYSDSVKGRFTISRDDSKSSVYLQMNNLRVEDMGIYYCTGSYYGMDYWGQGTSVTVSSASTKGPSVFPLAPSSKSTSGGTAALGCLVKDYFPEPVTVSWNSGALTSGVHTFPAVLQSSGLYSLSSVVTVPSSSLGTQTYICNVNHKPSNTKVDKKVEPKSCDKTHTCPPCPAPELLGGPSVFLFPPKPKDTLMISRTPEVTCVVVDVSHEDPEVKFNWYVDGVEVHNAKTKPREEQYNSTYRVVSVLTVLHQDWLNGKEYKCKVSNKALPAPIEKTISKAKGQPREPQVCTLPPSRDELTKNQVSLSCAVKGFYPSDIAVEWESNGQPENNYKTTPPVLDSDGSFFLVSKLTVDKSRWQQGNVFSCSVMHEALHNRFTQKSLSLSPGK
light: DVVMTQTPLSLPVSLGDQASISCRSSQSLVHSNGNTYLRWYLQKPGQSPKVLIYKVSNRFSGVPDRFSGSGSGTDFTLKISRVEAEDLGVYFCSQSTHVPWTFGGGTKLEIKRTVAAPSVFIFPPSDEQLKSGTASVVCLLNNFYPREAKVQWKVDNALQSGNSQESVTEQDSKDSTYSLSSTLTLSKADYEKHKVYACEVTHQGLSSPVTKSFNRGEC
notes: structure 3 isotype control; CH2 WT; copies: 1 + 1 + 1 + 2
B3: M3IC-AAG (bispecific antibody)
fusion heavy: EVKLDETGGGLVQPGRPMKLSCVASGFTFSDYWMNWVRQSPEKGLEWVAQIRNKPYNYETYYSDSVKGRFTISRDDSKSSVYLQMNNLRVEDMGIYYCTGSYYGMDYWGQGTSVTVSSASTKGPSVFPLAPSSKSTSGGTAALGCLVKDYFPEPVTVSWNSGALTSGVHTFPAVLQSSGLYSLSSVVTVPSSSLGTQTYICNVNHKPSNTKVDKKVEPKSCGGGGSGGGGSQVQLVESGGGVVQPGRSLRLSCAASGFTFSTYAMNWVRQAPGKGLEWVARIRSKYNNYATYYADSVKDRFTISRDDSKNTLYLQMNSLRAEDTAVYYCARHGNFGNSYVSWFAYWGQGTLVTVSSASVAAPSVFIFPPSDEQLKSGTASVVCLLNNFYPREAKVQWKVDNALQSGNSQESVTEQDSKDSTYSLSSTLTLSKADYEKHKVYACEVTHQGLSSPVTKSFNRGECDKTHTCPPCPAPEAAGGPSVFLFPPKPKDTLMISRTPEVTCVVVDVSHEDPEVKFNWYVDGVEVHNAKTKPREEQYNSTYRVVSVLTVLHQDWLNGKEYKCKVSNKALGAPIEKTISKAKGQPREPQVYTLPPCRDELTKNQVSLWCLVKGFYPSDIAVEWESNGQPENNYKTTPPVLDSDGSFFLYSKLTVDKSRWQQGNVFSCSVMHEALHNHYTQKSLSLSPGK
cross light: QTVVTQEPSLTVSPGGTVTLTCRSSTGAVTTSNYANWVQQKPGQAPRGLIGGTNKRAPGVPARFSGSLLGGKAALTLSGVQPEDEAEYYCALWYSNLWVFGGGTKVEIKSSASTKGPSVFPLAPSSKSTSGGTAALGCLVKDYFPEPVTVSWNSGALTSGVHTFPAVLQSSGLYSLSSVVTVPSSSLGTQTYICNVNHKPSNTKVDKKVEPKSC
heavy: EVKLDETGGGLVQPGRPMKLSCVASGFTFSDYWMNWVRQSPEKGLEWVAQIRNKPYNYETYYSDSVKGRFTISRDDSKSSVYLQMNNLRVEDMGIYYCTGSYYGMDYWGQGTSVTVSSASTKGPSVFPLAPSSKSTSGGTAALGCLVKDYFPEPVTVSWNSGALTSGVHTFPAVLQSSGLYSLSSVVTVPSSSLGTQTYICNVNHKPSNTKVDKKVEPKSCDKTHTCPPCPAPEAAGGPSVFLFPPKPKDTLMISRTPEVTCVVVDVSHEDPEVKFNWYVDGVEVHNAKTKPREEQYNSTYRVVSVLTVLHQDWLNGKEYKCKVSNKALGAPIEKTISKAKGQPREPQVCTLPPSRDELTKNQVSLSCAVKGFYPSDIAVEWESNGQPENNYKTTPPVLDSDGSFFLVSKLTVDKSRWQQGNVFSCSVMHEALHNRFTQKSLSLSPGK
light: DVVMTQTPLSLPVSLGDQASISCRSSQSLVHSNGNTYLRWYLQKPGQSPKVLIYKVSNRFSGVPDRFSGSGSGTDFTLKISRVEAEDLGVYFCSQSTHVPWTFGGGTKLEIKRTVAAPSVFIFPPSDEQLKSGTASVVCLLNNFYPREAKVQWKVDNALQSGNSQESVTEQDSKDSTYSLSSTLTLSKADYEKHKVYACEVTHQGLSSPVTKSFNRGEC
notes: structure 3 isotype control; CH2 AAG; copies: 1 + 1 + 1 + 2

How the values were obtained:
Monkey CD3 = target: T1, Monkey CD3 (monkey); test: flow cytometry, monkey T cells
T1 construct: whole, on cells; also called CD3 of monkey CD3 positive T cells

human CEA [1] = target: T2, human CEA (human, UniProt P06731 35-685); test: flow cytometry, human tumor cells (CEA+)
T2 sequence: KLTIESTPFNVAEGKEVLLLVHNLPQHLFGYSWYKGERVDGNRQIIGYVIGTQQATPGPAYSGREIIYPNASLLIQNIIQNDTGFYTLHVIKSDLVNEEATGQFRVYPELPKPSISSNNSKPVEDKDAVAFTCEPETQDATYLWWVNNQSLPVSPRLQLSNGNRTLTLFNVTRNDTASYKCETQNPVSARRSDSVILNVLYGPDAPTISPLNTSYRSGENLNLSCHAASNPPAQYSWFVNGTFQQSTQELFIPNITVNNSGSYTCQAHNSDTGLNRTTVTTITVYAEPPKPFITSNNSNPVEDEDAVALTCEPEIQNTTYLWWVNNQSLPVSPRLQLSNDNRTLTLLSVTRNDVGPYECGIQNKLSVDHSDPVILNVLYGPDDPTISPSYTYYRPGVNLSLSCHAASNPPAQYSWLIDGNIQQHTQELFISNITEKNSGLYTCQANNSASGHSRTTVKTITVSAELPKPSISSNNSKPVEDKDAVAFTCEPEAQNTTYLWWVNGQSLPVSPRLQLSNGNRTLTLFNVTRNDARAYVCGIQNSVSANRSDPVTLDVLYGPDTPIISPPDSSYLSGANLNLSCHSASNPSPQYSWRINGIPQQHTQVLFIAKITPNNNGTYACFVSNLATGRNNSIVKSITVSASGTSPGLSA
Source text: (§1) 1) Cell preparation: T cells isolated from CD3-positive human whole blood were used for a CD3 end affinity detection of multifunctional antibody molecule; positive tumor cells of corresponding antigen were used for detecting affinity of tumor antigen; for example, CD38-positive MM. 1S cells (purchased from the Cell Resource Center of Shanghai Institutes for Biological Sciences, Chinese Academy of Sciences) or RPMI 8226 cells (purchased from the Cell Resource Center of Shanghai Institutes for Biological Sciences, Chinese Academy of Sciences) were used for CD38 antigen detection, and PD-L1 positive H358 cells (purchased from the Cell Resource Center of Shanghai Institutes for Biological Sciences, Chinese Academy of Sciences) were used for PD-L1 antigen detection, and so on. The cells were resuspended with 1% FBS-PBS, adjusted to a density of 4×10⁶/ml, and 50 μl of cells were taken from each well, and then plated at 2×10⁵ per well. Cell plating was operated on ice
(§2) 2) Addition of the antibody: according to the experimental design, the antibody was diluted gradually, and dilution of antibody was operated on ice. For example, the initial concentration of antibody for dilution was 3000 nM, and the antibody was diluted by 3 times with 11 concentration gradients. The diluted antibody was added to a cell well at 50 μl per well, mixed well, and shaked and incubated at 4° C. 1100 rpm/min for 2 h; after washing, the cells were resuspend in 1% FBS-PBS, and a diluted secondary antibody PE anti-human IgG FC (Biolegend, 409304) was added with a final concentration of 8 ug/ml and a volume of 50 μl/well. At the same time, a well only added with cells and secondary antibody was set as a control, the components were mixed well, and incubated under shaking at 1100 rpm/min at 4° C. for 1 h;
(§3) 5) Data analysis: the data was analyzed by a flow analysis software FlowJo 7.6 thereby obtaining an average fluorescence intensity of the specific antibody concentration, plotted by a Graphpad Prism 5 with the antibody concentration (nM) as an abscissa and the average fluorescence intensity as an ordinate; the EC50 value was calculated by the method of One site—Specific binding, and the EC50 value indicated the cell affinity of the antibody to the corresponding target antigen.

Human CD3ε = target: T3, Human CD3ε (human, UniProt P07766 23-126); test: flow cytometry, human T cells
T3 construct: CD3 on T cells isolated from human whole blood
How it was run: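 Cells expressing the target antigen (CD38+ MM.1S or RPMI 8226 for CD38; isolated T cells for CD3) were plated at 2×10⁵ per well in 1% FBS-PBS on ice. Antibody was titrated 3-fold over 11 points from 3000 nM and incubated 2 h at 4° C with shaking, followed by PE anti-human IgG Fc.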

human CEA [2] = target: T2, human CEA; test: flow cytometry, human tumor cells (table of the CEA series)
Source text: as §1, §2, §3

Binder	EC50 (Monkey CD3) [nM]	EC50 (human CEA [1]) [nM]	EC50 (Human CD3ε) [nM]	binding result (human CEA [2])
B1	798	32.1	688	–
B2	709	–	637	no binding
B3	659	–	606	no binding

From patent publication US20220098307A1 (WUHAN YZY BIOPHARMA, published 2022)
